Changes are numbered by the printed parent chain. Names and notes keep the numbering of the source.
T1: EsCas13d, nuclease-dead (Eubacterium siraeum, UniProt B0MS50, R295A;H300A;R849A;H854A)
T1 sequence: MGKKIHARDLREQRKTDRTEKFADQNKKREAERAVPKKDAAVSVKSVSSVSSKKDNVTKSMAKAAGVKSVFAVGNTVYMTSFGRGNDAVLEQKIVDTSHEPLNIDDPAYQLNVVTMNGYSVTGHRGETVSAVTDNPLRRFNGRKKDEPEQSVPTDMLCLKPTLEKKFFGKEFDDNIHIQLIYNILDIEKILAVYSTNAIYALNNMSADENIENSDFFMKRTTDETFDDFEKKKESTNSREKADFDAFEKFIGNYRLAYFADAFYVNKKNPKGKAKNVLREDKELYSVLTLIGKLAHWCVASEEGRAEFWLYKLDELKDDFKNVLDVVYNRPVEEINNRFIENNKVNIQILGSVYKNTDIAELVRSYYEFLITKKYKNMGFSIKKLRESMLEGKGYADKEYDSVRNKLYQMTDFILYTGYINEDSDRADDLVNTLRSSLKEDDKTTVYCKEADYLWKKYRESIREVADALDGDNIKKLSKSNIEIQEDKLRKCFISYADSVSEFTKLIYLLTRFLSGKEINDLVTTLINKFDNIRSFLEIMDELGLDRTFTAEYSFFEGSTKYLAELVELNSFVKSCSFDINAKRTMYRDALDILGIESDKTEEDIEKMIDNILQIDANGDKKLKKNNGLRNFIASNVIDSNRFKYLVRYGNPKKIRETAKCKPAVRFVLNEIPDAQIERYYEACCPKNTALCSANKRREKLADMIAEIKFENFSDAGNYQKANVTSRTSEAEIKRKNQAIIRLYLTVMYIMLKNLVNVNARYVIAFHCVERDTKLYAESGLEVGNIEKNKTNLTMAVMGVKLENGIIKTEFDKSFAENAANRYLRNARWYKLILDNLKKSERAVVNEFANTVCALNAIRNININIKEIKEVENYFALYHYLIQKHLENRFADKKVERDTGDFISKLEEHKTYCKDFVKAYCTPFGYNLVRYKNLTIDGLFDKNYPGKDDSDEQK

B1: target 1 insA 3' of 6,insU 3' of 1 (mixed)
RNA 1: CACCCGUGCAAAAAUGCAGGGGUCUAAAACUGAGCGGAUAACCUCUCUAUGG
RNA 2: GGGAAUGGAUCCACAUCUACGAAUUCGUACCAUAGAGAGGUUAUCCAGCUCAUCCGAGAUCGGAAGAGCACACGU
B2: target 1 U3G,U8C (mixed)
RNA 1: B1 RNA 1
RNA 2: GGGAAUGGAUCCACAUCUACGAAUUCGUACCAUAGAGAGGUUACCCGCGCACCGAGAUCGGAAGAGCACACGU
B3: target 1 G12A,G13C (mixed)
RNA 1: B1 RNA 1
RNA 2: B2 RNA 2 with G39C, G40A, C44U, G49U
B4: target 1 insG 3' of 16,insU 3' of 4 (mixed)
RNA 1: B1 RNA 1
RNA 2: GGGAAUGGAUCCACAUCUACGAAUUCGUACCAUAGAGGAGGUUAUCCGCUUCACCGAGAUCGGAAGAGCACACGU
B5: target 1 insA 3' of 22,insU 3' of 12 (mixed)
RNA 1: B1 RNA 1
RNA 2: GGGAAUGGAUCCACAUCUACGAAUUCGUACACAUAGAGAGGUUUAUCCGCUCACCGAGAUCGGAAGAGCACACGU
B6: target 1 insA 3' of 19,insA 3' of 8 (mixed)
RNA 1: B1 RNA 1
RNA 2: B5 RNA 2 with A31C, C32A, A33U, U34A, U44A, A45U, U46A
B7: target 1 del9,del20 (mixed)
RNA 1: B1 RNA 1
RNA 2: GGGAAUGGAUCCACAUCUACGAAUUCGUACCUAGAGAGGUUUCCGCUCACCGAGAUCGGAAGAGCACACGU
B8: target 1 insG 3' of 19,insG 3' of 2 (mixed)
RNA 1: B1 RNA 1
RNA 2: B4 RNA 2 with A34G, G35A, A36G, G37A, U51C, C52G
B9: target 1 G12U,C22G (mixed)
RNA 1: B1 RNA 1
RNA 2: B2 RNA 2 with C30G, G40U, C44U, G49U
B10: target 1 insG 3' of 8,insU 3' of 4 (mixed)
RNA 1: B1 RNA 1
RNA 2: B1 RNA 2 with C45G, A47C, C51U, A52C, U53A
B11: target 1 G12A,C21U (mixed)
RNA 1: B1 RNA 1
RNA 2: B2 RNA 2 with C31U, G40A, C44U, G49U
B12: target 1 U3C,U10C (mixed)
RNA 1: B1 RNA 1
RNA 2: B2 RNA 2 with U42C, C44U, G49C
B13: target 1 insC 3' of 20,insU 3' of 12 (mixed)
RNA 1: B1 RNA 1
RNA 2: B5 RNA 2 with A31C, C32A, A33C
B14: target 1 insA 3' of 11,insA 3' of 3 (mixed)
RNA 1: B1 RNA 1
RNA 2: B4 RNA 2 with G38A, A39G, G41U, U42A, U51A
B15: target 1 U3G,C6A (mixed)
RNA 1: B1 RNA 1
RNA 2: B2 RNA 2 with C44U, C46A
B16: target 1 insU 3' of 5,insG 3' of 2 (mixed)
RNA 1: B1 RNA 1
RNA 2: B1 RNA 2 with A47G, G48U, A52G, U53A
B17: target 1 insA 3' of 6,insG 3' of 1 (mixed)
RNA 1: B1 RNA 1
RNA 2: B1 RNA 2 with U53G
B18: target 1 insA 3' of 8,insC 3' of 3 (mixed)
RNA 1: B1 RNA 1
RNA 2: B1 RNA 2 with C45A, A47C, A52C, U53A
B19: target 1 C7U,U8G (mixed)
RNA 1: B1 RNA 1
RNA 2: B2 RNA 2 with C44G, C45U, G49U
B20: target 1 insC 3' of 10,insA 3' of 4 (mixed)
RNA 1: B1 RNA 1
RNA 2: B4 RNA 2 with G38A, A39G, G41U, U43C, U50A
B21: target 1 A1G,A20C (mixed)
RNA 1: B1 RNA 1
RNA 2: B2 RNA 2 with A32C, C44U, G49U, A51G
B22: target 1 insA 3' of 6,insA 3' of 2 (mixed)
RNA 1: B1 RNA 1
RNA 2: B1 RNA 2 with U53A
B23: target 1 U8C,G13A (mixed)
RNA 1: B1 RNA 1
RNA 2: B2 RNA 2 with G39A, G49U
B24: target 1 insC 3' of 15,insC 3' of 8 (mixed)
RNA 1: B1 RNA 1
RNA 2: B4 RNA 2 with G38C, G48C, C49G, U50C
B25: target 1 complement block 1-3 (mixed)
RNA 1: B1 RNA 1
RNA 2: B2 RNA 2 with C44U, G49A, C50G, A51U
B26: target 1 C2A,U10G (mixed)
RNA 1: B1 RNA 1
RNA 2: B2 RNA 2 with U42G, C44U, G49U, C50A
B27: target 1 C2G,U3A (mixed)
RNA 1: B1 RNA 1
RNA 2: B2 RNA 2 with C44U, G49A, C50G
B28: target 1 insG 3' of 6,insU 3' of 1 (mixed)
RNA 1: B1 RNA 1
RNA 2: B1 RNA 2 with A47G
B29: target 1 insG 3' of 11,insG 3' of 3 (mixed)
RNA 1: B1 RNA 1
RNA 2: B4 RNA 2 with G38A, A39G, G41U, U42G, U51G
B30: target 1 C2U,G15C (mixed)
RNA 1: B1 RNA 1
RNA 2: B2 RNA 2 with G37C, C44U, G49U, C50U
B31: target 1 insU 3' of 22,insC 3' of 15 (mixed)
RNA 1: B1 RNA 1
RNA 2: B5 RNA 2 with A31U, A39C, G40A, U42G
B32: target 1 del6,del7 (mixed)
RNA 1: B1 RNA 1
RNA 2: GGGAAUGGAUCCACAUCUACGAAUUCGUACCAUAGAGAGGUUAUGCUCACCGAGAUCGGAAGAGCACACGU
B33: target 1 insC 3' of 22 (mixed)
RNA 1: B1 RNA 1
RNA 2: GGGAAUGGAUCCACAUCUACGAAUUCGUACCCAUAGAGAGGUUAUCCGCUCACCGAGAUCGGAAGAGCACACGU
B34: target 1 C6U,A14G (mixed)
RNA 1: B1 RNA 1
RNA 2: B2 RNA 2 with A38G, C44U, C46U, G49U

Target: T1, EsCas13d, nuclease-dead
Assay: crRNA (strand 1, pre-loaded); Mg2+; 40 mM Tris-HCl pH 7.5, 150 mM NaCl, 6 mM MgCl2, 1 mM DTT, 0.1% Tween-20, 0.2 mg/ml BSA; 25 C; 10 min per concentration, then washed
Conditions: tags: His6-TwinStrep-SUMO cleaved; N-terminal SNAP kept (SNAP-Surface 488); label: 3' end held by stalled T7 RNA polymerase

Binder | Kd
B1 | 25 ± 5 nM
B2 | 7.2 ± 0.33 nM
B3 | ~90 nM
B4 | 13.9 ± 0.6 nM
B5 | 11.5 ± 1.1 nM
B6 | 31.1 ± 2.7 nM
B7 | 52 ± 7 nM
B8 | 99 ± 26 nM
B9 | 42 ± 6 nM
B10 | 9.44 ± 0.34 nM
B11 | 7.8 ± 0.5 nM
B12 | 51 ± 9 nM
B13 | 6.19 ± 0.32 nM
B14 | 14 ± 0.7 nM
B15 | 6.3 ± 0.4 nM
B16 | 9.1 ± 0.5 nM
B17 | 16 ± 1.2 nM

Binder | Kd
B18 | 15.8 ± 0.6 nM
B19 | 14.2 ± 1 nM
B20 | 15.5 ± 2.6 nM
B21 | 41 ± 4 nM
B22 | 18.7 ± 1.3 nM
B23 | 61 ± 12 nM
B24 | 26.2 ± 2.8 nM
B25 | 7 ± 0.5 nM
B26 | 28 ± 1.9 nM
B27 | 13.4 ± 1.3 nM
B28 | 17.8 ± 2.3 nM
B29 | 42 ± 7 nM
B30 | 49 ± 5 nM
B31 | 67 ± 14 nM
B32 | 11.4 ± 0.7 nM
B33 | 14.7 ± 0.9 nM
B34 | 14.2 ± 0.7 nM

— publication PMC10786891, “Massively parallel profiling of RNA-targeting CRISPR-Cas13d”
